From patent US8647828B2, “Intracellular targeting of molecules via syndecan-4” (Szilak Laboratories Bioinformatics & Molecule-Design Ltd., priority 2007, dated 2014)
Ends that are not written are not given here.

Tests used:
[1] = tested on: syndecan-4; assay: FGF2 stimulated syndecan-4 endocytosis, time-lapse confocal microscopy; format: cell-based, human; conditions: HT1080, 22° C., 0, 10 and 60 minutes
[2] = target: T1, syndecan-4 (Homo sapiens, UniProt P31431); assay: Syndecan-4 mediated internalization and nuclear targeting of FITC labeled basic peptides (immunofluorescent microscopy); format: cell-based; conditions: 10 μM FITC labeled peptide
T1 construct: comprising the full, human syndecan-4 cDNA driven by cytomegalovirus (CMV) promoter; expressed in transfected cells; host or cells: HT1080 fibrosarcoma, MCF7 adenocarcinoma
T1 sequence (P31431 19-198): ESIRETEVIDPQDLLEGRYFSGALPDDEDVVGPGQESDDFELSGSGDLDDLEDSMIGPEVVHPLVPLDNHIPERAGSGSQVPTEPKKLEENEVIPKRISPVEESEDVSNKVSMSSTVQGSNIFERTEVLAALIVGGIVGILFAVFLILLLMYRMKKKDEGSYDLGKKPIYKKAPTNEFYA
Description: Green fluorescent protein (GFP, Clontech; Palo Alto, Calif., USA) labeled fusion proteins were used to follow the process of the endocytosis of syndecan-4 in vivo. GFP was inserted into the syndecan-4 extracellular region in the HuSynd4 pCMV construct, comprising the full, human syndecan-4 cDNA driven by cytomegalovirus (CMV) promoter by using techniques well-known by the person skilled in the art. To avoid possible artifacts, every experiment was repeated with all of the constructs; HuSynd4 pCMV and the GFP chimeras. To reveal the role and the importance of phosphorylation stage of Ser179, mutations were introduced into the cytoplasmic tail region of syndecan-4-GFP chimeras. […]
Syndecan-4 is able to carry the agents bound on the cell surface into the cell. […] The cells were permeabilized with 0.1% triton X-100 (Sigma, St. Louis, Mo., USA) in PBS, and syndecan-4 was visualized with anti-syndecan-4 ectodomain serum (Zymed, San Francisco, Calif., USA), monitored by immunofluorescent microscopy. […] The labeled molecules were detected in distinct compartments of cytoplasm, which indicate that the syndecan-4 was able to internalize and traffic the attached agents, like antibodies, and basic peptides along, holding the specifically bound agents intact throughout the whole process. […]

nuclear accumulation of labeled oligopeptide, colocalized with syndecan-4 [2] | Substance | syndecan-4 endocytosis [1] | triggering of syndecan-4 endocytosis and penetration into the cell ([2]; incubated for an hour)
 | FGF2: basic fibroblast growth factor, stimulator of syndecan-4 endocytosis | stimulated | 
accumulated in the nucleus | KRKRKR (also: FITC label) [6 amino acid basic oligopeptide, fluorescently (FITC) labeled] |  | able to trigger the endocytosis, and penetrate
